The experiment has as its target T1, IrtA, full length (subunit of full-length Mtb IrtAB) (Mycobacterium tuberculosis H37Rv, UniProt P9WQJ9 1-859).
T1 construct: also called Rv1348
T1 sequence: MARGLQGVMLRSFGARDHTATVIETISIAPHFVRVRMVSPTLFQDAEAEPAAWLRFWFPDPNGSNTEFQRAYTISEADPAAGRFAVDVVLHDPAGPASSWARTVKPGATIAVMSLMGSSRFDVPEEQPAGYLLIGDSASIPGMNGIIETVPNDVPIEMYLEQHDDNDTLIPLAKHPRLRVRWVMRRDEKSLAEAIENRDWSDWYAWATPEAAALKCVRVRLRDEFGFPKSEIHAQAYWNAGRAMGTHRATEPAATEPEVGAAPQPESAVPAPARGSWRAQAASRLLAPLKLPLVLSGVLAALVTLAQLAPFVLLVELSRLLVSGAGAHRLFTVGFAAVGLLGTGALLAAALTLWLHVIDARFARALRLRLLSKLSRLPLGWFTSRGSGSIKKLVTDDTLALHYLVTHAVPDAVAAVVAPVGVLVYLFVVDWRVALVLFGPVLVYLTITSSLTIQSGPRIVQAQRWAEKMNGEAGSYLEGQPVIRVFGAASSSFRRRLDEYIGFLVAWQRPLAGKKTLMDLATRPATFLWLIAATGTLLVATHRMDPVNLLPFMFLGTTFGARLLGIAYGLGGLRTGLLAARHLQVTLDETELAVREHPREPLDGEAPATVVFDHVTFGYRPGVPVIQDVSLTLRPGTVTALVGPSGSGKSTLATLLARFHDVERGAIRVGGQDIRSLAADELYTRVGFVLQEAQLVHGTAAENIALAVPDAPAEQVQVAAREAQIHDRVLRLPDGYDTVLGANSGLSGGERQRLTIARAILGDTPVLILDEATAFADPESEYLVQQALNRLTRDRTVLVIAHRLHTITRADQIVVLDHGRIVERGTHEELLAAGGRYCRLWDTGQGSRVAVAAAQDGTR
Put plainly: cryo-EM structure; full-length IrtAB without nucleotide, in digitonin, 20 mmol/L MES pH 6.5, 150 mmol/L NaCl; inward-facing. Particulars: both partners purified.

B1: IrtB with C-terminal 10x His tag (subunit of Mtb IrtAB) (natural protein)
chain: MIRTWIALVPNDHRARLIGFALLAFCSVVARAVGTVLLVPLMAALFGEAPQRAWLWLGWLSAATVAGWVLDAVTARIGIELGFAVLNHTQHDVADRLPVVRLDWFTAENTATARQAIAATGPELVGLVVNLVTPLTSAILLPAVIALALLPISWQLGVAALAGVPLLLGALWASAAFARRADTAADKANTALTERIIEFARTQQALRAARRVEPARSLVGNALASQHTATMRLLGMQIPGQLLFSIASQLALIVLAGTTAALTITGTLTVPEAIALIVVMVRYLEPFTAVSELAPALESTRATLGRIGSVLTAPVMVAGSGTWRDGAVVPRIEFDDVAFGYDGGSGPVLDGVSFCLQPGTTTAIVGPSGCGKSTILALIAGLHQPTRGRVLIDGTDVATLDARAQQAVCSVVFQHPYLFHGTIRDNVFAADPGASDDQFAQAVRLARVDELIARLPDGANTIVGEAGSALSGGERQRVSIARALLKAAPVLLVDEATSALDAENEAAVVDALAADPRSRTRVIVAHRLASIRHADRVLFVDDGRVVEDGSISELLTAGGRFSQFWRQQHEAAEWQILAE
notes: also called Rv1349
Turning to B1, the binding result is reported as “binds”.
